The data set is described as follows: yeast display, Sf9 membrane polyspecificity reagent, FACS + sequencing; frameworks hold sequencing errors. The essentials: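 Galactose-induced (36–48 hours) yeast carrying a synthetic nanobody display library were exposed to 10% biotinylated, detergent-solubilized Sf9 membrane reagent at 4 °C for 1 hour. FACS followed streptavidin microbead enrichment, using low and high (top ~1%) gates for expression (anti-HA) and reagent binding (streptavidin). Colony PCR, MiSeq 2 × 250 sequencing and CDR-length filtering followed. Labels for polyreactivity reflect the gate of origin.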
On to “QVQLVESGGGLVQAGGSLLLSCAASGRTFILNAMGWYRQAPGKERELVAAISWSGGSTYYADSVKGRFTISRDKSKNTVYLQMNSLKPEDPAVYYCAAETYAYLFHTYDYGGQGTQVTVSS”, for which the “polyreactivity (PSR sort gate)” value is “low polyreactivity”.

As for “QVQLVESGGGLVQAGGSLLLSCAASGRTFYYNAMGWYRQAPGKERELVAAISRGGNTNYADSVKGRFTISRDNAKNTVYLQMNSLKPEDTAVYYCSTYHRYKFYYWGQGTQVTVSS”, the “polyreactivity (PSR sort gate)” value was “high polyreactivity”.

Regarding “QVQLVESGGGLVQAGGSLLLSCAASGSIFGWYAMGWYRQAPGKERELVAAISSSGDSTYYADSVKGRFTISRDNAKNTVYLQMNSLKPEDTAVYYCAAEYWPSSPSAPGFDYDHWGQGTQVTVSS”, the “polyreactivity (PSR sort gate)” value is on record as “low polyreactivity”.

For the sequence “QVQLVESGGGLVQAGGSLLLSCAASGSIFRVYAMGGYRQAPGKESELVAAISVSGSSTYYADSVKGRFTISRDNAKNTVYFQMNCLKREDTAVYYCATKQRRGYWGYITAYARYYWGQGTQVSVSS”, the “polyreactivity (PSR sort gate)” value is reported as “high polyreactivity”.

“QVQLVESGGGLVQAGGSLLLSCAASGSTFIPYAMGWYRQAPWKERELVAAITWSSGSTYYADSVKVRFTISRDNAKNTVFLQMNSLKTEDTAVYYCARDRYSVFDYDYWGQGTQVTVSS”: the “polyreactivity (PSR sort gate)” value was “low polyreactivity”.

Take “QVQLVESGGGLVQAGGSLLLSCAASVFIYRWYAMGWYRPAPGKERELVAGISASGGSTYYADSVKGRFTISRDNAKNTVYLQMNSLKPEDTAVYYCAAYRRNSRWELDYWGQGTQVTVSS”: the “polyreactivity (PSR sort gate)” value is listed as “high polyreactivity”.

As for “QVQLVESGGGLVQAGGSLLLSCAASVRIFQGYAMGWYRQEPGKERELVAAISSGGRTYYADSVKGRFTISRDNAKNTVYLQMNSLKPEDTAVYYCAARSPKAHGLQRFDYWGQGTQVTVSS”, the “polyreactivity (PSR sort gate)” value is reported as “high polyreactivity”.

For the sequence “QVQLVESGGGLVQAGGSLLLSCPASGRIFTWYAMGWYRQAPGKERELVAAINYNGDDTYYADSVKGRFTISRDNAKNTVYLQMNSLKPEDTAVYYCAAEGSRPPYDYWGQGTQVTVSS”, the “polyreactivity (PSR sort gate)” value is listed as “high polyreactivity”.

Regarding “QVQLVESGGGLVQAGGSLLLSGAPSGRTFPYYAMGWYRQAPGKERELVARISSDGSTTYADSVKGRITISRDHAKNTVYLQMNSLKPEDTAVYYSAADVTFAGLKYIFDYWGPGTQVTVSS”, the “polyreactivity (PSR sort gate)” value is listed as “low polyreactivity”.

In the case of “QVQLVESGGGLVQAGGSLLVSCAASGRIFSYNAMGWYRQAPGKERELVAAITRSGSTNYADSVKGRFTISRDNANNTVYLQMNSLKPEDTAVYYCAAVVYRPYRWQYDYWGQGTQVTVSS”, the “polyreactivity (PSR sort gate)” value is “high polyreactivity”.

On to “QVQLVESGGGLVQAGGSLPLICADSGFISAYYAMGWYRQAPGKEREFVAGISKSGSSTSYADSVKGRFTISRDNAKKTVYLQMNSLKPEDTAVYYCAKYTPYYSELGYWGQGTQVTVSS”, for which the “polyreactivity (PSR sort gate)” value was “high polyreactivity”.

Regarding “QVQLVESGGGLVQAGGSLPLRCAASGLILEYYAMGWYRQAPGKERELVAAITRGGSTYYADSVKWRFTISRDNAKNTVYLQMNSLKPEDTAVYYCAADRYYYEYDYWGQGTQVNVSS”, the “polyreactivity (PSR sort gate)” value was “low polyreactivity”.

Turning to “QVQLVESGGGLVQAGGSLPLSCAASGLTIFVNAMGWYRQAPGKERELVATISGGGSTYYADSVKGRFTISRDNAKNTVYLQMNSLKREDTAVYYCNAADVGGPWWYPYTYNYWGQGTQVTVSS”, the “polyreactivity (PSR sort gate)” value is given as “low polyreactivity”.

For “QVQLVESGGGLVQAGGSLPLSCAASGRTFHYNAMGWYRQAPGKERDLFAAISRDGGSTDYADSVKGRFTISSDNAKNTVYLQMNSLKPEDTAVYYCAAPIGKQEFSRDYDYWGQGTQVTVSS”, the “polyreactivity (PSR sort gate)” value was “low polyreactivity”.

In the case of “QVQLVESGGGLVQAGGSLPLSCAASGRTFYYYAMGWYRQAPGKERELVAAISWSGGRTYYADSVKGSFTISRDNAKNTVYLQMNSLKPADTAVYYCNAEPPRGYTVSSGGEMDYWGQCTQVTVSS”, the “polyreactivity (PSR sort gate)” value is on record as “low polyreactivity”.

Regarding “QVQLVESGGGLVQAGGSLPLSCAASGSIFDDYAMGWYRQAPGKEWELVAAITSGGSTYYADSVKGRFTISRDNAKYTVYLQMNSLKPEDTAVYYCAAPENKYDEYDYWGQGTQVTVSS”, the “polyreactivity (PSR sort gate)” value is “low polyreactivity”.

On to “QVQLVESGGGLVQAGGSLPLSCAASGSIFLYNAMGWYRQAPGKERELVAGITFIGGSTYYADSVKGRFTISRDNAKNSVYLQMNSLKPEDTAVYYCNRLGVYWVGTEFDYWGQGTQVTLSS”, for which the “polyreactivity (PSR sort gate)” value is listed as “low polyreactivity”.

Consider “QVQLVESGGGLVQAGGSLPLSCAASGSISGLNARGWSRQAPGTEREMVAAISRSGTRRYYADSVKGRFTISRDNEKNTVYLQMNSLKPEDSAVYYCAVQYAVAVGRYNYWGQGTQVTVSS”, for which the “polyreactivity (PSR sort gate)” value is “high polyreactivity”.

With “QVQLVESGGGLVQAGGSLPLSCAASGSTFNGYAMGWYIQAPGKEWELVAVISSGGTTNYADSVKGRFTISRDNAKNTVYLQMNSLKPEDTAVYYCAADIGHRYHYRFDYWGQGTQVTVSS”, the “polyreactivity (PSR sort gate)” value is given as “low polyreactivity”.

As for “QVQLVESGGGLVQAGGSLPLSCAASGYTFDANAMGWYRQAPGKERELVASISSISDSTDYADSVKGRFTISRDNAKNTVYLQMNSLKPEDTAVYYCARSDVKPGRQERDYWGQGTQVTVSS”, the “polyreactivity (PSR sort gate)” value was “low polyreactivity”.

Turning to “QVQLVESGGGLVQAGGSLPLSCYDSGITIPDYYMGCFRQSPGKERELVAAITYRSGSTYNADSVKGRFTISRDNAKNTVYLQMNSLKQEDTAVFYCAAKRFLLRYYTKQYNYWGLGTQVTVSS”, the “polyreactivity (PSR sort gate)” value is reported as “high polyreactivity”.

In the case of “QVQLVESGGGLVQAGGSLRCSCAASGRTFGTYAMGWYRQAPGKERELVAAISTRDGSTYYADSVKGRYTISRDTAKNTVYLQMNSLKPEDTAVYYCNAVVRYYDWGYWDYDYWGQGTQVTVSS”, the “polyreactivity (PSR sort gate)” value was “low polyreactivity”.

With “QVQLVESGGGLVQAGGSLRESCAASGSISAEYVMGWYRKAPGKERELVAAISVSAGTTYYADSVKGRFTISRDNAKTTVYLHMNSLKPEDTAVYYCAATDSYYWLYYYGYSPCNDYWGQGTQVTVSS”, the “polyreactivity (PSR sort gate)” value is recorded as “low polyreactivity”.

“QVQLVESGGGLVQAGGSLRFSCAASGFIFSNYAMGWYRQAPGKERELVAAITSGGSTNYADSVKGRFTISRDNAKNTVYLQMNSLKPEDTAVYYCAAERGDTAYRKYDYWGQGTQVTVSS”: the “polyreactivity (PSR sort gate)” value is on record as “low polyreactivity”.

Consider “QVQLVESGGGLVQAGGSLRFSCAASGFTFPYYAMGWYRQAPGKERELVAAITGRGGSSYYADSVKGRFTISRDNAKNTVYLQMNSLKPEDTAVYYCAARRSSRSKRLNYWGQGTQVTVSS”, for which the “polyreactivity (PSR sort gate)” value is “high polyreactivity”.

For “QVQLVESGGGLVQAGGSLRFSCAASGFTFSDYAMGWYRQAPGKEREFVAAITRRGGSTYYADSVKGRFTISRDNAKNTVYLQMNSLKPEDTAVYYCAKRGLRSYSFPLWQGYDYWGQGTQVTVSS”, the “polyreactivity (PSR sort gate)” value is “high polyreactivity”.

For the sequence “QVQLVESGGGLVQAGGSLRFSCAASGFTFVINDMGWYRQAPGKERELVADITSGGDTYYADSVKGRFTISRDNAKNTVYLQMNSLKPEDTAVYYCAADIYPDWIYLLYGYWGQGTQVTVSS”, the “polyreactivity (PSR sort gate)” value was “low polyreactivity”.

“QVQLVESGGGLVQAGGSLRFSCAASGGIYYLYAMGWYRQAPGKEREFVAAISSSGGSTNYADSVMGRFTISRDNAKNTVYLQMNSLKRDDSAVYYCNAVDWKQEVGGWVEYDYWGQGTQVNVSS”: the “polyreactivity (PSR sort gate)” value is listed as “high polyreactivity”.

On to “QVQLVESGGGLVQAGGSLRFSCAASGHIFFYYTMGWYRQAPGKERELVAGITQSGGNTYYADSVKGRFTISRDNAKNTVYLQMNSLKPEDTAVYYCAARIRGTWKYGYWGQGTQVTVSS”, for which the “polyreactivity (PSR sort gate)” value is recorded as “low polyreactivity”.

On to “QVQLVESGGGLVQAGGSLRFSCAASGITFSSYGMGWYRQAPGKERELVAAISWDSGSTYYADSVKGRFTISRDNAKNTVYLQMNSLKPEQTAVYYCNAVYYSVYRFDYWGQGTQVTVSS”, for which the “polyreactivity (PSR sort gate)” value is listed as “high polyreactivity”.

On to “QVQLVESGGGLVQAGGSLRFSCAASGRIFRFYAMGWYRQAPGKERELVAAISSRGGSTYYADSVKGRFTISRDNAKNTVYLQMNSLKPEDTAVYYCNAYGSTSQLDYWGQGTQVTVSS”, for which the “polyreactivity (PSR sort gate)” value is “high polyreactivity”.

Take “QVQLVESGGGLVQAGGSLRFSCAASGRIFRYNAMGWYRQAPGKARELVAAISRSGGSTYYADSVKGRFTISRDNAKNTVYLQMISLKPEDTAVYYCAVGSPYGGRAPCVRGGDYWGQGTQVTVSS”: the “polyreactivity (PSR sort gate)” value is on record as “high polyreactivity”.

As to “QVQLVESGGGLVQAGGSLRFSCAASGRTFNQNAMGWYRQAPGKERELVAAITSRGGSTFYADSVKGRFTISRDNAKNTVYLQMNSLKPEDTAVYYCNAKSWRYYTMGYWGQGTQVTVSS”, the “polyreactivity (PSR sort gate)” value is reported as “high polyreactivity”.

With “QVQLVESGGGLVQAGGSLRFSCAASGRTFNWYAMGWYRQAPGKERELVAAISSRGGSTYADSVKGRFTISRDNAKNTVYLQMNSLKPEDTAVYYCAARHHGTKYDYWGQGTQVTVSS”, the “polyreactivity (PSR sort gate)” value is on record as “low polyreactivity”.

With “QVQLVESGGGLVQAGGSLRFSCAASGRTIYYNTMGWYRQAPGKERELVAAINYGGSTYYADSVKGRFTISRDNAKNTVYLQMHSLKPEDTAVYYCNAVTRPKTWRYDYWGQGPQVTVSS”, the “polyreactivity (PSR sort gate)” value is “high polyreactivity”.

With “QVQLVESGGGLVQAGGSLRFSCAASGSIFDYNAMGWYRQAPGKERELVAAIDWSGSSTYYADSVKGRFTISRDNAKNTVYLQMNSLKPEDTAVYYCNALAYYGMDYWGQGTQVTVSS”, the “polyreactivity (PSR sort gate)” value is “low polyreactivity”.

Turning to “QVQLVESGGGLVQAGGSLRFSCAASGSIFWYNAMGWYRQAPGKERELVARISSSGDSTYYADSVKGRFTISRDNAKNTVYLQMNSLKPEDTAVYYCNVDYWSISESSWGYYTSYDYWGQGTQVTVSS”, the “polyreactivity (PSR sort gate)” value was “high polyreactivity”.

As for “QVQLVESGGGLVQAGGSLRFSCAASGSTFHRYVMGWYRQAPGKERELVADINSTGGSTYYADSVKGRFTISRDNAKNTVYLQMNSLKPEDTAVYYCARVTRRGPGFSTLYSRYDYWGQGTQVNVSS”, the “polyreactivity (PSR sort gate)” value is listed as “low polyreactivity”.

Consider “QVQLVESGGGLVQAGGSLRFSCAASGSTFRAYAMGWYRQAPGKEREFVASISWSGGRTYYADSVKGRFTISRDNAKNTVYLQMNSLIPEDTAVYYCAADYDVLDYGNLRYGFDYWGQGTKVTVSS”, for which the “polyreactivity (PSR sort gate)” value is given as “low polyreactivity”.

For “QVQLVESGGGLVQAGGSLRFSCAASGSTFVYYAMGWYRQAPGKERELVAAITFGGGSTYYADSVKGRFTISRDNAKNTVYLQMNSLKPEDTAVYYCAVYWDDGSAYPPLIVGYDYWGQGTQVTVSS”, the “polyreactivity (PSR sort gate)” value was “low polyreactivity”.

For the origin of these results see the nanobody polyreactivity screen of Harvey et al. (2022).
